Here are results for two molecules from US20190309066A1, “COMBINATION THERAPY FOR THE TREATMENT OF SOLID AND HEMATOLOGICAL CANCERS” (Arch Oncology, Inc., priority 2017, published 2019).

For series [1], the target named is T1, recombinant human CD47 (His-CD47) (Homo sapiens, UniProt Q08722).
T1 construct: His; purchased Acro Biosystems
Description: Solid-phase His-CD47 ELISA at pH 6 or pH 8. The series is classed as binding. Conditions: pH 6.0 vs pH 8.0. As to the method: Binding by soluble anti-CD47 mAbs to immobilized recombinant human CD47 and to human CD47 expressed on cells was measured in vitro. For the in vitro binding to recombinant CD47, His-CD47 (AcroBiosystems) was adsorbed to high-binding microtiter plates overnight at 4° C. The wells were washed and varying concentrations of anti-CD47 mAbs were added to the wells in buffers with a of either pH 6 or pH 8 for 1 hour. The wells were washed and then incubated with HRP-labelled secondary antibody for 1 hour at pH 6 or pH 8 followed by addition of peroxidase substrate. The apparent affinities were calculated using non-linear fit model (Graphpad Prism).
(An ELISA detects its analyte on a solid surface through an enzyme-linked reagent.)

Series [2] relates to human red blood cells (hRBCs). In words: Hemagglutination of washed hRBCs. The format is cell-based. The settings on record: mAb concentrations 50 μg/ml down to 0.3 ng/ml or 0.3 pg/ml. As to the method: Hemagglutination of hRBCs was assessed following incubation of hRBCs with various concentrations of chimeric and humanized VLX4, VLX8, and VLX9 mAbs in vitro essentially as described by Kikuchi et al. Biochem Biophys Res. Commun (2004) 315:912-918. Blood was obtained from healthy donors, diluted (1:50) in PBS/1 mM EDTA/BSA and washed 3 times with PBS/EDTA/BSA. hRBCs were added to U-bottomed 96 well plates with equal volumes of the antibodies (75 μl of each) and incubated for 3 hrs at 37° C. and overnight at 4° C.

For series [3], the system named is Jurkat cells. In words: In vitro cell death assay (annexin V / 7-AAD). The format is cell-based, human. Conditions: 1 μg/ml soluble mAb, 24 hrs. As to the method:
Induction of cell death by soluble anti-CD47 mAbs is measured in vitro (Manna et al. (2003) J. Immunol. […] (7): 3544-53, Kikuchi et al. Biochem Biophys Res. Commun. 315: 912-8, 2004), Pettersen et al. J. Immuno. 162: 7031-7040, 1999), Manna et al. Cancer Research, 64: 1026-1036, 2004). For the in vitro cell death assay, 1×10^5 transformed human T cells (Jurkat cells) were incubated with soluble humanized VLX4, VLX8, and VLX9 CD47 mAbs (1 μg/ml) for 24 hrs at 37° C. As cell death occurs, mitochondrial membrane potential is decreased, the inner leaflet of the cell membrane is inverted, exposing phosphatidylserines (PS), and propidium iodide (PI) or 7-aminoactinomycin D (7-AAD) is able to incorporate into nuclear DNA. In order to detect these cellular changes, cells were then stained with fluorescently labelled annexin V and PI or 7-aminoactinomycin D (7-AAD) (BD Biosciences) and the signal detected using an Accuri C6 flow cytometer (BD Biosciences). The increase in PS exposure is determined by measuring the percent increase in annexin V signal and the percent of dead cells by measuring the percent increase in PI or 7-AAD signal. Annexin V positive (annexin V+) or annexin V positive/7-AAD negative (annexin V^+/7-AAD^−) cells are observed in early stages of cell death and annexin V positive/7-AAD positive (annexin V^+/7-AAD^+) cells are dead cells. […]

T1 sequence (Q08722 19-323): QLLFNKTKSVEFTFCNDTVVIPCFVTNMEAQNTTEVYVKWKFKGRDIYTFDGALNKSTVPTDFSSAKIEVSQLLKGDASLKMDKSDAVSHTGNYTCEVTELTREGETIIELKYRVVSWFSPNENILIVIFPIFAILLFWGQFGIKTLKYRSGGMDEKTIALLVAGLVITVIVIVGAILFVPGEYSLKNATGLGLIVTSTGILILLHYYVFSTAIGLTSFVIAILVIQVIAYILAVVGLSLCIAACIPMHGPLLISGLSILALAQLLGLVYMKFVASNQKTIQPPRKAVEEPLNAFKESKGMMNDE

B1: VLX9 IgG (murine): murine VLX9 anti-CD47 antibody (antibody, V domains shown)
VH: QVQLQQFGAELAKPGASVQMSCKASGYTFTNYWIHWVKQRPGQGLEWIGYTDPRTDYTEYNQKFKDKATLAADRSSSTAYMRLSSLTSEDSAVYYCAGGGRVGLGYWGHGSSVTVSS
VL: DVFMTQTPLSLPVSLGDQASISCRSSQNIVQSNGNTYLEWYLQKPGQSPKLLIYKVFHRFSGVPDRFSGSGSGTDFTLKISRVEAEDLGVYYCFQGSHVPWTFGGGTKVEIK
Take B1: the “pH dependence of binding to His-CD47” value in series [1] is reported as “did not display pH dependence”.

B2: VLX9 IgG2 (xi): chimeric (murine-human) anti-CD47 mAb, human IgG2 (antibody)
heavy: QVQLQQFGAELAKPGASVQMSCKASGYTFTNYWIHWVKQRPGQGLEWIGYTDPRTDYTEYNQKFKDKATLAADRSSSTAYMRLSSLTSEDSAVYYCAGGGRVGLGYWGHGSSVTVSSASTKGPSVFPLAPCSRSTSESTAALGCLVKDYFPEPVTVSWNSGALTSGVHTFPAVLQSSGLYSLSSVVTVPSSNFGTQTYTCNVDHKPSNTKVDKTVERKCCVECPPCPAPPVAGPSVFLFPPKPKDTLMISRTPEVTCVVVDVSHEDPEVQFNWYVDGVEVHNAKTKPREEQFNSTFRVVSVLTVVHQDWLNGKEYKCKVSNKGLPAPIEKTISKTKGQPREPQVYTLPPSREEMTKNQVSLTCLVKGFYPSDIAVEWESNGQPENNYKTTPPMLDSDGSFFLYSKLTVDKSRWQQGNVFSCSVMHEALHNHYTQKSLSLSPGK
light: DVFMTQTPLSLPVSLGDQASISCRSSQNIVQSNGNTYLEWYLQKPGQSPKLLIYKVFHRFSGVPDRFSGSGSGTDFTLKISRVEAEDLGVYYCFQGSHVPWTFGGGTKVEIKRTVAAPSVFIFPPSDEQLKSGTASVVCLLNNFYPREAKVQWKVDNALQSGNSQESVTEQDSKDSTYSLSSTLTLSKADYEKHKVYACEVTHQGLSSPVTKSFNRGEC
As to B2, the “hemagglutination of hRBCs (in words)” value in series [2] is “caused visible hemagglutination”. Besides, in series [3], the “PS exposure and cell death (annexin V+, annexin V+/7-AAD−, annexin V+/7-AAD+)” value was “induced increased PS exposure and cell death”.
